In patent publication US7618943B2, “Fusion polypeptides, and use thereof in antivascular tumor therapy” (Oncoscience AG, priority 2003, dated 2009):
“Also recorded” adds a separate entry of the source.

T1: matrix metalloproteinase-2 (MMP-2) (Homo sapiens, UniProt P08253)
T1 sequence (P08253 110-660): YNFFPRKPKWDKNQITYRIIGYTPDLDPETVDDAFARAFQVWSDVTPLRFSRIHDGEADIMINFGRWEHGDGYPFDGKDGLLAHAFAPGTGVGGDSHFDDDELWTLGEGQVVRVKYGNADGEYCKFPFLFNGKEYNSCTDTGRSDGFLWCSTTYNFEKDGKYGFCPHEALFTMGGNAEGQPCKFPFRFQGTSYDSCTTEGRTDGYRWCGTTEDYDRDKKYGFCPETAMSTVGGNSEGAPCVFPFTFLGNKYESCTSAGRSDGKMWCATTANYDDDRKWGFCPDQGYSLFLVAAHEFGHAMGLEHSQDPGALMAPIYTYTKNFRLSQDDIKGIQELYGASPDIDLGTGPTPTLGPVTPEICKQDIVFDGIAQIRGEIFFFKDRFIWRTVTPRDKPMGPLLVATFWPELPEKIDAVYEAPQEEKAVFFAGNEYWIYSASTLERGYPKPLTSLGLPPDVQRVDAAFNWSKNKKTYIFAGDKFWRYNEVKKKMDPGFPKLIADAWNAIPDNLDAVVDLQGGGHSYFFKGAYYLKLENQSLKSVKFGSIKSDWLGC


Legend:
[1] = molecular target: T1, matrix metalloproteinase-2 (MMP-2); settings: cited from earlier work
[2] = system: human fibrosarcoma (HT1080); assay: HT1080 fibrosarcoma xenograft in BALB/c nude mice, intravenous therapy; format: in vivo
Source text: b: Inhibition of a human fibrosarcoma (HT1080) growing as a xenograft in athymic nude mice by intravenous therapy with tTF fusion proteins (tTF-RGD, n=12) compared with the growth of the tumors with infusion of physiological saline solution (NaCl, n=15) or tTF (n=14). The vertical arrows indicate the times of the injections with the respective substances.
The antitumor activity of the tTF-RGD fusion protein was also investigated in BALB/c nude mice with fibrosarcomas (HT1080). These tumors grow rapidly and are well-vascularized. […] This effect lasted until the end of the experiment on day 7 (P=0.021 for tTF-RGD relative to the buffer control (physiological saline solution), P=0.005 for tTF-RGD relative to tTF).

[3] = system: normal tissue such as heart, kidney, liver and lung; settings: mouse, in vivo
[4] = system: human lung carcinoma (CCL185); assay: CCL185 lung carcinoma xenograft in athymic nude mice, intravenous therapy; format: in vivo
Source text: FIG. 7: Inhibition of a human lung carcinoma (CCL185) growing as a xenograft in athymic nude mice by intravenous therapy with tTF fusion proteins (tTF-RGD, n=6; tTF-NGR, n=6) compared with tumor growth with infusion of physiological saline solution (NaCl, n=8) or tTF (n=1). The vertical arrows indicate the times of injection with the respective substances.
c: Inhibition of a human lung carcinoma (CCL185) growing as a xenograft in athymic nude mice by intravenous therapy with tTF fusion proteins (tTF-RGD, n=11) compared with the growth of the tumors in infusion of physiological saline solution (NaCl, n=10) or tTF (n=5). The vertical arrows indicate the times of the injections with the respective substances.
(§1) The tTF-RGD and tTF-NGR fusion proteins were evaluated with respect to their effects and side-effects on xenografts of human tumors in athymic nude mice. The models established in our laboratory were used for this (33, 34). The cell lines CCL185 (human adenocarcinoma of the lung) and M-21 (human melanoma) were injected subcutaneously into the flank of male BALB/c nude mice (9-12 weeks old). On attaining a tumor volume of about 50-100 mm^3 (CCL185) or 400-600 mm^3 (M−21), the mice were assigned to four groups at random. Group 1 received only physiological saline solution (NaCl), group 2 tTF, group 3 tTF-RGD, and group 4 tTF-NGR (in each case 1.5-2.0 mg/kg body weight (BW) of the protein). The injections were made in the caudal vein of the animals at intervals of 1-3 days (depending on the growth rate of the particular cell line). Considerable therapeutic activity of the fusion proteins was observed.

[5] = system: human malignant melanoma (M21); assay: M21 melanoma xenograft in athymic nude mice, intravenous therapy; format: in vivo
Experimental: The vertical arrows indicate the times of injection with the respective substances.
The vertical arrows indicate the times of the injections with the respective substances.
as §1

[6] = system: human endothelial cells; assay: FACS binding of biotinylated proteins to endothelial cells in suspension; format: cell-based; settings: 0.1 μM, 60 min at 4° C., streptavidin-phycoerythrin detection
Experimental: FIG. 6: Binding of tTF and tTF-RGD to human endothelial cells. A: FACS analysis of endothelial cells incubated with 0.1 μM tTF (2) or with 0.1 μM tTF-RGD (3) for 60 min at 4° C. […] Curves 1 in A and B show the negative control.
Next the specific binding of tTF-RGD to αvβ3 on endothelial cells was evaluated. For this, the differential binding of biotinylated tTF and tTF-RGD to endothelial cells in suspension was analysed by FACS (Fluorescence Activated Cell Sorting). The fact that all endothelial cells held in tissue culture are activated, i.e. express αvβ3 molecules, is utilized experimentally. This can be detected by various immunohistochemical methods. A cultivated endothelial cell thus corresponds, in relation to its expression pattern with respect to αvβ3 to a tumor endothelial cell. Accordingly, a cultivated endothelial cell can be used as a model system for the specific binding of substances to tumor endothelial cells and also permits predictions to be made concerning the expected toxicity.
Streptavidin-phycoerythrin was used as the detection method. The measured fluorescence intensity for tTF-RGD was higher by a factor of 8 than for tTF (FIG. 6A). Furthermore, the binding of 0.1 μM tTF-RGD to endothelial cells was lowered competitively by 75% by the administration of 1 μM of the synthetic peptide GRGDSP (SEQ ID NO:33) (FIG. 6B). […]

[7] = molecular target: integrin αvβ3 (Homo sapiens, UniProt P05106+P06756); assay: ELISA binding to immobilized purified αvβ3; settings: 0.1 μM protein, immobilized αvβ3
Experimental: FIG. 4: Binding of tTF, tTF-RGD and tTF-NGR to integrin αvβ3. The binding of 0.1 μM tTF, tTF-RGD and tTF-NGR to immobilized αvβ3 was quantified with a polyclonal antibody against human TF (American Diagnostica) in an ELISA. The results are presented as median and interquartile range. The differences in binding between tTF-RGD and tTF or between tTF-NGR and tTF were statistically significant (p<0.001, Mann-Whitney test).

[8] = system: tumor blood vessels; assay: Macroscopy and histology of tumors after injection (thrombosis induction in tumor vessels, necrosis); format: in vivo, mice
Experimental: FIG. 9: Macroscopic in vivo photograph of a tumor-bearing mouse 20 min after injection of the tTF-NGR fusion protein (A, left half of the picture) or NaCl (A, right half of the picture). […] After 60 min, the two mice were exsanguinated, the tumor was excised in toto and examined histologically. […] In contrast, the NaCl-treated tumor appears to be vital (C).
FIG. 10: Histology of the melanoma tumor 1 hour after intravenous injection of tTF-RGD (A and B), tTF-NGR (C and D) and common salt (E and F) in the caudal vein of the tumor-bearing nude mouse. […] The photographs are of representative areas of the tumors (A, C and E: 200× magnification, B, D and F 400× magnification; HE staining (staining described e.g. in H. C. Burck, Histologische Technik-Leitfaden für die Herstellung mikroskopischer Präparate in Unterricht und Praxis, 5th edition, Thieme Verlag, Stuttgart 1982, pages 109 ff.).
FIG. 35: Macrograph of a mouse bearing an M21 tumor at the end of treatment (day 7) with tTF-RGD fusion protein (A, C) or NaCl (B, D).
To verify the mechanism of action of thrombosis induction in tumor vessels, the following experiment was carried out: the human melanoma cell line was injected into the flank of two male BALB/c nude mice. On attaining a tumor size of approx. 500 mm^3, 2.0 mg/kg BW tTF-NGR or NaCl was injected into the caudal vein. […] After 60 min the mice were exsanguinated, the tumor was excised in toto and investigated histologically. […] In contrast, the tumor treated with NaCl appears to be vital (FIG. 9C).

[9] = melanoma tumor 1 hour after intravenous injection, HE staining

integrin αvβ3, sequence (P06756 31-889 limits assumed): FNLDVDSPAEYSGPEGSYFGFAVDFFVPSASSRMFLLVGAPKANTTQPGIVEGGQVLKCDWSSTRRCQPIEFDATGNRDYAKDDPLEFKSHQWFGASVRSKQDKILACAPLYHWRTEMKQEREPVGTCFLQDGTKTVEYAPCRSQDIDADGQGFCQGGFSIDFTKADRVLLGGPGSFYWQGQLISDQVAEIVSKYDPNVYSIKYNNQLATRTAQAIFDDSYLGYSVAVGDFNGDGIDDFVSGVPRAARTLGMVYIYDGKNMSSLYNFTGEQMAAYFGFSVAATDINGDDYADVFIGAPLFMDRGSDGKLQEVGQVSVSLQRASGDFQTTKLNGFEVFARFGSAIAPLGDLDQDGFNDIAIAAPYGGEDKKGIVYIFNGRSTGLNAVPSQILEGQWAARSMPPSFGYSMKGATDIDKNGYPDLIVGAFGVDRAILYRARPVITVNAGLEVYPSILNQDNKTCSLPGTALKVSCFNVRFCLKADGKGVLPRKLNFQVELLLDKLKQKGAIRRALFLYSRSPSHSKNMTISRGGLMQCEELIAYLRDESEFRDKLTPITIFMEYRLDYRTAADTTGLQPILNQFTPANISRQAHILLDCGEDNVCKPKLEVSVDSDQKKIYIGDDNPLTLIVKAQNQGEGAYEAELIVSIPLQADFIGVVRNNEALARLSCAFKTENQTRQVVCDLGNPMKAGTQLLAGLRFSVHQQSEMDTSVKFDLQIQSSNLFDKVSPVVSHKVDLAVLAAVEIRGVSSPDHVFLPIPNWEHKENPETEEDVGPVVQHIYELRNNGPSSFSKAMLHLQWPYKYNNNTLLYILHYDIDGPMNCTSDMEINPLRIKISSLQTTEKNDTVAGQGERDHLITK
integrin αvβ3, sequence (P06756 891-1048 limits assumed): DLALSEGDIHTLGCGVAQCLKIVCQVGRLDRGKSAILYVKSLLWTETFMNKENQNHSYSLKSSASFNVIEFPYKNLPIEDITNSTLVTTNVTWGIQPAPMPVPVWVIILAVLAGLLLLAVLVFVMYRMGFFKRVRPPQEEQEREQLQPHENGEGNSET
integrin αvβ3, sequence (P05106 27-788): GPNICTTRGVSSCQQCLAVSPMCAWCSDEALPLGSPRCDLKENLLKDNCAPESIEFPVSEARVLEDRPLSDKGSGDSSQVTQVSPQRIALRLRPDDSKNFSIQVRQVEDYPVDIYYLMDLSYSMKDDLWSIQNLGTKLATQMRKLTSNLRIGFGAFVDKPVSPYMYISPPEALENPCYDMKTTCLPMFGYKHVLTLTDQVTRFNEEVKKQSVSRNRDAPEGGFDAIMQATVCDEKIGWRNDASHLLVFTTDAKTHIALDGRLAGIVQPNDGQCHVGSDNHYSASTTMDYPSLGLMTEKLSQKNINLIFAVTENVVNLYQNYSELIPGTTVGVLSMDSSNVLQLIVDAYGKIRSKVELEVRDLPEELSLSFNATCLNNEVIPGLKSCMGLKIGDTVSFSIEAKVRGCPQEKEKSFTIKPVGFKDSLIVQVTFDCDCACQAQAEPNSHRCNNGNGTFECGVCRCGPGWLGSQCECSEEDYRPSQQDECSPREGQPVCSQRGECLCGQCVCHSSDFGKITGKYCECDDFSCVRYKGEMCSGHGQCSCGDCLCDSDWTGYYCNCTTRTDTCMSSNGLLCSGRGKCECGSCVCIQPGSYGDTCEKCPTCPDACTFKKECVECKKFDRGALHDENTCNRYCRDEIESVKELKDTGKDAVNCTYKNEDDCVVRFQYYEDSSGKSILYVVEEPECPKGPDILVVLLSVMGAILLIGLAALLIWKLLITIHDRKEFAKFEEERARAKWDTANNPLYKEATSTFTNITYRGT

Molecule | inhibition of MMP-2 [1] | Mean tumor volume Day 0 ([2]; HT1080 tumors, Day 0 (baseline)) [mm^3] | Mean tumor volume Day 7 ([2]; HT1080 tumors, Day 7) [mm^3] | effect on tumor growth ([2]; HT1080 xenograft, intravenous therapy, compared with control groups) | H-E staining of heart, lung, liver and kidney (thrombosis, necrosis) [3] | Mean tumor volume Day 0 ([4]; CCL185 tumors, Day 0 (baseline)) [mm^3] | Mean tumor volume Day 7 ([4]; CCL185 tumors, Day 7) [mm^3] | effect on tumor growth ([4]; CCL185 xenograft, intravenous therapy, compared with NaCl or tTF) | Mean tumor volume Day 0 ([5]; M21 tumors, Day 0 (baseline)) [mm^3] | Mean tumor volume Day 7 ([5]; M21 tumors, Day 7) [mm^3] | effect on tumor growth ([5]; M21 xenograft, intravenous therapy, compared with NaCl or tTF) | measured fluorescence intensity, factor higher than for tTF [6] | binding to the αvβ3 integrin in ELISA [7] | H-E staining of tumors: thrombosis and necrosis ([8]; FIG. 36, treated mice) | macroscopic appearance of tumor at the end of treatment ([8]; M21 tumor, day 7) | histology of tumor blood vessels (thrombus formation) [8, 9] | histology: tumor necrosis in supply region of occluded vessel [8, 9]
TTHWGFTL | selective and potent inhibition | – | – | – | – | – | – | – | – | – | – | – | – | – | – | – | –
tTF-RGD: fusion polypeptide tTF-GRGDSP (SEQ ID NO:3), peptide coupled to C-terminus of tTF (protein, Amino acid sequence of tTF-GRGDSP) SGTTNTVAAYNLTWKSTNFKTILEWEPKPVNQVYTVQISTKSGDWKSKCFYTTDTECDLTDEIVKDVKQTYLARVFSYPAGNVESTGSAGEPLYENSPEFTPYLETNLGQPTIQSFEQVGTKVNVTVEDERTLVRRNNTFLSLRDVFGKDLIYTLYYWKSSSSGKKTAKTNTNEFLIDVDKGENYCFSVQAVIPSRTVNRKSTDSPVECMGQEKGEFRGRGDSD | – | 1725 ± 197 | 1241 ± 122 | significant inhibition of growth; also recorded: partial regression of tumor volume | did not show any visible thrombosis or necrosis | 45 ± 5 | 130 ± 19 | Inhibition | 585 ± 85 | 514 ± 81 | Inhibition and partial remission | 8 | demonstrated | Severe thrombosis and necrosis of tumor cells | clear signs of necrosis | blood vessels appear to be thrombolytically occluded | Extensive tumor necroses
